Experimental data as given in patent US6942853.

Experiments:
[1] = molecular target: LAP-mIFNβ fusion protein (human (LAP of TGFβ) fused to mouse (IFNβ)); test: cell-based or functional assay
[2] = tested on: 75 kDa glycosylated product of mIFNβ-LAP
[3] = tested on: 75 kDa glycosylated product of LAP-mIFNβ
[4] = tested on: CHO-derived latent TGFβ binding protein (LTBP)

Chain of mIFNβ-LAP fusion protein (chain, as listed by the source): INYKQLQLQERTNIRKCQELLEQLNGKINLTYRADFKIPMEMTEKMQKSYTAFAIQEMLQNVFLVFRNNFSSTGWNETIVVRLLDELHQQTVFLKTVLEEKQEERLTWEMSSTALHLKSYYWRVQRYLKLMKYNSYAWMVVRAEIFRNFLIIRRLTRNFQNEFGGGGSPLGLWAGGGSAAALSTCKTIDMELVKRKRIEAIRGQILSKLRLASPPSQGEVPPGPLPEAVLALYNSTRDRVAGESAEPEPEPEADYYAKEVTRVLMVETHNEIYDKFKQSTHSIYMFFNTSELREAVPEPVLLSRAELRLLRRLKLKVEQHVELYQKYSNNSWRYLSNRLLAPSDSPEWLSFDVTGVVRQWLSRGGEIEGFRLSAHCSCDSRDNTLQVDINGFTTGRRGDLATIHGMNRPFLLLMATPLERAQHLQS
Chain of LAP-mIFNβ fusion protein (chain, as listed by the source): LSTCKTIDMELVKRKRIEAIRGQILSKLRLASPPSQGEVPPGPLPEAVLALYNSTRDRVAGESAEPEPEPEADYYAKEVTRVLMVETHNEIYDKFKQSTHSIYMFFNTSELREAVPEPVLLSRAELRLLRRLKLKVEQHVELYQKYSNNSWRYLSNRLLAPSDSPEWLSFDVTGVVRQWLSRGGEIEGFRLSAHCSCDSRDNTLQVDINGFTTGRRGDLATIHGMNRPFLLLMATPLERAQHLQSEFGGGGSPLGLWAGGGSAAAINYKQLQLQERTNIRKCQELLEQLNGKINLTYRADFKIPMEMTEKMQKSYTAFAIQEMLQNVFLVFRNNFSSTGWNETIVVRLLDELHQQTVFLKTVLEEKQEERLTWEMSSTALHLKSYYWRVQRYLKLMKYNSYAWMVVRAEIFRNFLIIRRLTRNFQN
Chain of recombinant pro-MMP9 (P14780 20-707): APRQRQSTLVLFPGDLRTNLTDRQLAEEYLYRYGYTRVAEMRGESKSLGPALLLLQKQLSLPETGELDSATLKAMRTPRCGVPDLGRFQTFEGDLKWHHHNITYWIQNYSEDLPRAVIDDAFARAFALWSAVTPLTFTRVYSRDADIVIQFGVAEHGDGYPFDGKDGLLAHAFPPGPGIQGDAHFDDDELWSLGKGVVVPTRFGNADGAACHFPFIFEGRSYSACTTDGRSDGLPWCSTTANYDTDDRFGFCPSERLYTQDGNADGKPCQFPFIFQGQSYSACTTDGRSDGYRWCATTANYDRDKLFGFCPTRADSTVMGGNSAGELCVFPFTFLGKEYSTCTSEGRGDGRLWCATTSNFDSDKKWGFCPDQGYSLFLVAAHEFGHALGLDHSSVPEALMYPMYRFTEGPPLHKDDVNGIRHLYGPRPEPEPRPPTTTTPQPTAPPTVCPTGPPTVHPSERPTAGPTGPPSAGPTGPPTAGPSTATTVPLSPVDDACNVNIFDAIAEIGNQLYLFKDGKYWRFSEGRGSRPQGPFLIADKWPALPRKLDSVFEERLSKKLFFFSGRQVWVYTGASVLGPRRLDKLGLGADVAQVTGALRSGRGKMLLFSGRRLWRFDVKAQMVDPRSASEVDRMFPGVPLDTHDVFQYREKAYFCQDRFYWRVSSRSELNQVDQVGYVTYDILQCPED
Chain of active MMP1 (recombinant) (P03956 100-469): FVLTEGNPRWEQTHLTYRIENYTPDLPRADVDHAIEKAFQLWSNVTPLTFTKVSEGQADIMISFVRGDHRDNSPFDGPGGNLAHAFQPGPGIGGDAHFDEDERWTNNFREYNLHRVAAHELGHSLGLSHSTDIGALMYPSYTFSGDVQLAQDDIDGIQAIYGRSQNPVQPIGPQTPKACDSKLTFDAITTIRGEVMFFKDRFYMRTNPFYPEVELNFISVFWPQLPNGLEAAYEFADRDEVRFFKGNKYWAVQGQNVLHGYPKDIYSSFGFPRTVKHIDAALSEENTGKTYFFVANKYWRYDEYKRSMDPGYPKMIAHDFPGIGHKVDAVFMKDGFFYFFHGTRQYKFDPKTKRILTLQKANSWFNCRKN

fold activation of antiviral activity (non-concentrated supernatants from MTX amplified cells) [1] | Substance | mIFNβ biological activity (U/ml) after MMP treatment (mIFNβ-LAP fusion protein) | proteolytic cleavage (mIFNβ-LAP fusion protein) | proteolytic cleavage of immunoprecipitated protein, SDS-PAGE (mIFNβ-LAP fusion protein) | mIFNβ biological activity (U/ml) after MMP treatment (LAP-mIFNβ fusion protein) | proteolytic cleavage (LAP-mIFNβ fusion protein) | proteolytic cleavage of immunoprecipitated protein, SDS-PAGE (LAP-mIFNβ fusion protein) | proteolytic cleavage of immunoprecipitated protein, SDS-PAGE [2] | proteolytic cleavage of immunoprecipitated protein, SDS-PAGE [3] | proteolytic cleavage of immunoprecipitated protein, SDS-PAGE [4]
32 fold | active MMP3 (recombinant) (enzyme) | – | – | – | – | – | – | – | – | –
21 fold | active MMP1 (recombinant) (enzyme) | – | – | – | – | – | – | – | – | –
– | recombinant pro-MMP9 | 1540 U/ml | MMP9 could not cleave the fusion proteins | pro-MMP9 or MMP1 did not cleave very efficiently the 57 kDa recombinant product | 288 U/ml | MMP9 could not cleave the fusion proteins | pro-MMP9 or MMP1 did not cleave very efficiently the 57 kDa recombinant product | – | – | –
– | active MMP1 (recombinant) | 6140 U/ml | – | pro-MMP9 or MMP1 did not cleave very efficiently the 57 kDa recombinant product | 6140 U/ml | – | pro-MMP9 or MMP1 did not cleave very efficiently the 57 kDa recombinant product | MMP1 was capable of cleaving the glycosylated form of the fusion protein | MMP1 was capable of cleaving the glycosylated form of the fusion protein | –
– | active MMP3 (recombinant) | 3070 U/ml | – | MMP3 was capable on its own to digest it into several discreet bands | 9220 U/ml | – | MMP3 was capable on its own to digest it into several discreet bands | – | – | The LTBP band was also cleaved by MMP3
